Earlier results as cited in US20240307501A1 (priority 2021, published 2024).

Conditions: chronic doses of glucagon, patients with CHI, across 2 studies

Substance: Glucagon: native glucagon used off-label by IV or continuous SC infusion for CHI
- patients with erythema necrolyticum: 4 out of 11
